Reference: US8835136B2, “Engineered amine dehydrogenases and methods of use thereof” (Georgia Tech Research Corporation, priority 2012, dated 2014)

What was measured:
[1] = Reductive amination, spectrophotometric assay at 340 nm; format: biochemical; details: for Reductive amination specific activity: maximum specific activity, nonlinear fit
Description: (§1) Activity of purified proteins was measured using a spectrophotometric assay at 340 nm, corresponding to the cofactor nicotinamide adenine dinucleotide (NADH, ε340=6220 M^−1 cm^−1) (Dawson, et al., Clarendon Press, (1989). For reductive amination, reactions took place in 500 mM NH4Cl/NH4OH at pH 9.6, with 200 μM NADH and 20 mM of the ketone substrate, unless otherwise specified. For oxidative deamination, reactions took place in 0.1 M NaHCO3/Na2CO3 buffer at pH 10.0, with 1 mM NAD+ with 10 mM of the amine substrate of interest. All reactions were performed at 25° C. unless otherwise specified. Enzyme was added in 10 μL aliquots in dilute concentrations. Enzyme concentrations varied upon activity levels with the substrate present, but were dilute enough to ensure linear conversion kinetics over the analytical time period (10 min to 30 min). Specific activities were then calculated from the stoichiometric conversion of cofactor as determine by the change in absorbance at 340 nm over time.

[2] = Oxidative deamination, spectrophotometric assay at 340 nm; format: biochemical; details: for Oxidative deamination specific activity: maximum specific activity, 1,3-DMBA
Description: as §1, with “For oxidative deamination, reactions took place in 0.1 M NaHCO3/Na2CO3 buffer at pH 10.0, with 1 mM NAD+ with 10 mM of the amine substrate of interest.” left out

[3] = 1,3-DMBA substrate, read-out: KM (oxidative deamination)
[4] = purified LeuDH library 10/11 hits

B1: K67M: LeuDH single variant, library 1 (protein, listed as Bacillus stearothermophilus)
chain: ELFQYMEKYDYEQVLFCQDKESGLKAIIVIHDTTLGPALGGTRMWMYNSEEEALEDALRLARGMTYMNAAAGLNLGGGKTVIIGDPRKDKNEAMFRAFGRFIQGLNGRYITAEDVGTTVADMDIIYQETDYVTGISPEFGSSGNPSPATAYGVYRGMKAAAKEAFGSDSLEGKVVAVQGVGNVAYHLCRHLHEEGAKLIVTDINKEAVARAVEEFGAKAVDPNDIYGVECDIFAPCALGGIINDQTIPQLKAKVIAGSADNQLKEPRHGDMIHEMGIVYAPDYVINAGGVINVADELYGYNRERAMKKIEQIYDNIEKVFAIAKRDNIPTYVAADRMAEERIETMRKARSQFLQNGHHILSRRRAR
[1]; MIBK
  activity for reductive amination: 0.2 mU mg^−1
  Reductive amination specific activity: 0.0002 U mg^−1 protein
[2]
  activity in the oxidative deamination of racemic 1,3-DMBA: 3.4 mU mg^−1
  Oxidative deamination specific activity: 0.0034 U mg^−1 protein

B2: K67M, E113V: LeuDH-AmDH variant, SEQ ID NO:5 (protein)
chain: ELFQYMEKYDYEQVLFCQDKESGLKAIIVIHDTTLGPALGGTRMWMYNSEEEALEDALRLARGMTYMNAAAGLNLGGGKTVIIGDPRKDKNEAMFRAFGRFIQGLNGRYITAVDVGTTVADMDIIYQETDYVTGISPEFGSSGNPSPATAYGVYRGMKAAAKEAFGSDSLEGKVVAVQGVGNVAYHLCRHLHEEGAKLIVTDINKEAVARAVEEFGAKAVDPNDIYGVECDIFAPCALGGIINDQTIPQLKAKVIAGSADNQLKEPRHGDMIHEMGIVYAPDYVINAGGVINVADELYGYNRERAMKKIEQIYDNIEKVFAIAKRDNIPTYVAADRMAEERIETMRKARSQFLQNGHHILSRRRAR
[1]; MIBK
  Reductive amination specific activity: 0.015 U mg^−1 protein
[2]; [3]
  Km: 48 mM
[2]
  Oxidative deamination specific activity: 0.65 U mg^−1 protein

B3: K67M/E113V/N261C/V290C: LeuDH-AmDH variant, SEQ ID NO:9, library 10 (protein)
chain: ELFQYMEKYDYEQVLFCQDKESGLKAIIVIHDTTLGPALGGTRMWMYNSEEEALEDALRLARGMTYMNAAAGLNLGGGKTVIIGDPRKDKNEAMFRAFGRFIQGLNGRYITAVDVGTTVADMDIIYQETDYVTGISPEFGSSGNPSPATAYGVYRGMKAAAKEAFGSDSLEGKVVAVQGVGNVAYHLCRHLHEEGAKLIVTDINKEAVARAVEEFGAKAVDPNDIYGVECDIFAPCALGGIINDQTIPQLKAKVIAGSADCQLKEPRHGDMIHEMGIVYAPDYVINAGGCINVADELYGYNRERAMKKIEQIYDNIEKVFAIAKRDNIPTYVAADRMAEERIETMRKARSQFLQNGHHILSRRRAR
[1]; MIBK substrate, read-out: KM (reductive amination)
  Km: 21.6 mM
[1]; MIBK
  Reductive amination specific activity: 0.236 U mg^−1 protein
[1]; [4]
  Amination of MIBK Vmax: 0.236 ± 0.04
[1]; purified LeuDH library 10/11 hits, read-out: Amination of MIBK KM
  Km: 21.6 ± 11.5 mM
[2]; [3]
  Km: 14.8 mM
[2]
  Oxidative deamination specific activity: 1.76 U mg^−1 protein
[2]; [4]
  Deamination of 1,3-DMBA Vmax: 1.76 ± 0.20
[2]; purified LeuDH library 10/11 hits, read-out: Deamination of 1,3-DMBA KM
  Km: 14.8 ± 6.1 mM

B4: Asn276Val: B. badius PheDH single variant (protein, listed as Bacillus badius)
chain: SLVEKTSIIKDFTLFEKMSEHEQVVFCNDPATGLRAIIAIHDTTLGPALGGCRMQPYNSVEEALEDALRLSKGMTYKCAASDVDFGGGKAVIIGDPQKDKSPELFRAFGQFVDSLGGRFYTGTDMGTNMEDFIHAMKETNCIVGVPEAYGGGGDSSIPTAMGVLYGIKATNKMLFGKDDLGGVTYAIQGLGKVGYKVAEGLLEEGAHLFVTDINEQTLEAIQEKAKTTSGSVTVVASDEIYSQEADVFVPCAFGGVVNDETMKQFKVKAIAGSANVQLLTEDHGRHLADKGILYAPDYIVNSGGLIQVADELYEVNKERVLAKTKHIYDAILEVYQQAELDQITTMEAANRMCEQRMAARGRRNSFFTSSVKPKWDIRN
[1]; 500 mM NH4Cl/NH4OH pH 9.6, 200 μM NADH, 25° C.
  Amination Activity 40 mM MIBK, kcat: n.m.
[2]; 0.1M Glycine pH 10.0, 1 mM NAD+, 25° C.
  Deamination Activity 40 mM 1,3-DMBA, kcat: 0.0016 ± 0.000 s⁻¹
